# Laboratory results taken from IntAct's records for PubMed 20223215.
# B1: Low-density lipoprotein receptor-related protein 8 (Homo sapiens), Q14114 (parent)
# chain: MGLPEPGPLRLLALLLLLLLLLLLQLQHLAAAAADPLLGGQGPAKDCEKDQFQCRNERCIPSVWRCDEDDDCLDHSDEDDCPKKTCADSDFTCDNGHCIHERWKCDGEEECPDGSDESEATCTKQVCPAEKLSCGPTSHKCVPASWRCDGEKDCEGGADEAGCATLCAPHEFQCGNRSCLAAVFVCDGDDDCGDGSDERGCADPACGPREFRCGGDGGGACIPERWVCDRQFDCEDRSDEAAELCGRPGPGATSAPAACATASQFACRSGECVHLGWRCDGDRDCKDKSDEADCPLGTCRGDEFQCGDGTCVLAIKHCNQEQDCPDGSDEAGCLQGLNECLHNNGGCSHICTDLKIGFECTCPAGFQLLDQKTCGDIDECKDPDACSQICVNYKGYFKCECYPGYEMDLLTKNCKAAAGKSPSLIFTNRHEVRRIDLVKRNYSRLIPMLKNVVALDVEVATNRIYWCDLSYRKIYSAYMDKASDPKEQEVLIDEQLHSPEGLAVDWVHKHIYWTDSGNKTISVATVDGGRRRTLFSRNLSEPRAIAVDPLRGFMYWSDWGDQAKIEKSGLNGVDRQTLVSDNIEWPNGITLDLLSQRLYWVDSKLHQLSSIDFSGGNRKTLISSTDFLSHPFGIAVFEDKVFWTDLENEAIFSANRLNGLEISILAENLNNPHDIVIFHELKQPRAPDACELSVQPNGGCEYLCLPAPQISSHSPKYTCACPDTMWLGPDMKRCYRAPQSTSTTTLASTMTRTVPATTRAPGTTVHRSTYQNHSTETPSLTAAVPSSVSVPRAPSISPSTLSPATSNHSQHYANEDSKMGSTVTAAVIGIIVPIVVIALLCMSGYLIWRNWKRKNTKSMNFDNPVYRKTTEEEDEDELHIGRTAQIGHVYPAAISSFDRPLWAEPCLGETREPEDPAPALKELFVLPGEPRSQLHQLPKNPLSELPVVKSKRVALSLEDDGLP
# Variants of: B1
# Details: with reln_mouse Reln
row,Variant,effect of a mutation on the interaction
1,V63A,decreasing interaction
2,P61A,disrupting interaction
3,D69N,disrupting interaction
4,D50A,decreasing interaction
5,W64H,disrupting interaction
